Laboratory results published in patent publication US10526691B2, “Functionalized surface” (priority 2015, dated 2020).
Ends that are not written are not given here.

What was measured:
[1] = system: bacteria; test: Long term study of peptide-coated surfaces on taps in a medical school, one year; conditions: taps in toilets of a medical school; after 12 months; FIG. 13
Source text: The peptide-coated surfaces described in Examples 8 and 9 were installed in a medical school. The surfaces were placed on taps in the toilets and were swabbed over a period of one year.

[2] = system: bacteria; test: Peptide-coated nitrided steel surfaces on door handles, city hospital Outpatients area, three months
Method: A further study was carried out in the Outpatients area of a city hospital. This is a very busy area of the hospital and sees a high volume of patient and staff traffic. The peptide used was […] (SEQ ID NO: 5), and the coated steel surfaces were prepared as in Example 8.
Control and coated surfaces were placed on door handles in the Outpatients area. […] We saw 1 colony growth from the surfaces, which is believed to be due to the frequency of use of the surfaces. Surfaces were touched on average every 2 minutes during an observation period and, in a lot of cases, the surfaces had been touched immediately prior to the swabbing being undertaken.

[3] = Peptide fluorescence on nitrided titanium after environmental treatments; type: physicochemical; conditions: FIG. 9
Method: The durability of immobilized peptide on the surface of nitrided titanium was assessed following different environmental treatments, as shown in FIG. 9. […] (SEQ ID NO: 5)-coated titanium was incubated in control PBS solution, trypsin, Dettola or treated with sandpaper at room temperature for a suitable time which depended on the treatment used. The mean pixel number above the threshold was then assessed by fluorescence microscopy. Importantly, peptide fluorescence was retained after any of the environmental treatments, indicating a strong and durable interaction between peptide and metal.

[4] = Peptide fluorescence on nitrided titanium over 1 to 4 weeks in PBS; type: physicochemical; conditions: FIG. 8; for change of pixel number: nitrided titanium in PBS
Method: Having established the durability and the efficacy of immobilized peptides on a steel surface, the efficacy of peptides immobilized on a titanium surface was assessed. Nitrided titanium was prepared by Metaltech. […] (SEQ ID NO: 5), tagged with a fluorescent label, was immobilised on the surface of the nitrided titanium as described previously. Peptide-coated samples were incubated in PBS solution at room temperature for between 1 and 4 weeks, following which fluorescence, and the resulting pixel number above threshold, was assessed as described previously by fluorescence microscopy.

[5] = system: bacteria; test: Bacterial growth (absorbance) on peptide-coated nitrided titanium used as growth plate; type: cell-based; conditions: antimicrobial-peptide-coated nitrided titanium, in comparison to the controls; FIG. 10
Method: Nitrided titanium was prepared by Metaltech, and coated as described previously with the peptide […] (SEQ ID NO: 5), aside from a control (peptide) group in which nitrided titanium was coated with a non-antimicrobial peptide, and a control (titanium) group where the nitrided titanium remained uncoated. A positive control group, consisting of uncoated tissue culture plastic, was also used. The surfaces were washed and used as growth plates for bacteria. One group of antimicrobial peptide-coated titanium surfaces was immediately used as a growth plate for bacteria (treatment (immediate)). Another antimicrobial peptide-coated titanium group (treatment (environment)) was treated with PBS, followed by trypsin/EDTA, followed by Dettol followed by sandpapering, following which the surfaces were used as a growth plate for bacteria. The Absorbance relates to the bacteria number growing on the surface after incubation (FIG. 10). Low values indicate no bacterial growth, while high values indicate high numbers of bacteria.

[6] = Peptide coverage of nitrided steel after environmental, cleaning or coating treatments, fluorescence microscopy; type: physicochemical
Method: (§1) The peptide percentage surface coverage of the metal was assessed by the use of fluorescent peptides and microscopy. Peptide coated metal was viewed by a fluorescence microscope at an exposure of 1.55 s using a 10× objective. Nine images for each 1 cm^2 piece of steel were obtained. Images were analysed using ImageJ software (NIH, MD, USA). The threshold from control images, obtained from nitrided metal which had not been treated with peptide, was adjusted until all of the pixels were removed, leaving an image with no staining. This acted as a control baseline. Images from corresponding experimental samples were then adjusted to this threshold value and the residual pixel count then recorded as a measure of peptide attachment.
Mild steel was nitrided using a standard process for 19 hours at 440° C. by Metaltech. The peptide […] tagged with a fluorescent label was immobilized on the surface of the nitrided steel as described in Example 1. Peptide-coated steel was incubated in the appropriate environmental treatment at room temperature for a suitable time which depended on the treatment used. Samples were washed with saline following treatment and peptide attachment analysed by microscopy as detailed in Example 1.
Mild steel was nitrided using a standard process by Metaltech. The peptide […] (SEQ ID NO: 5) tagged with a fluorescent label was immobilized on the surface of the nitrided steel as described in Example 1. Peptide-coated steel was incubated in the appropriate environmental treatment at room temperature for a suitable time which depended on the treatment used. Samples were washed with saline following treatment and peptide attachment analysed by microscopy as detailed in Example 1.
Steel was nitrided or plasma ferretic nitrocarburised as described in Example 1, after which the peptide […] (SEQ ID NO: 5), tagged with a fluorescent label was immobilised on the nitrided surface as described in Example 1.
Peptide-coated alpha steel samples were incubated in various standard cleaning or coating treatments at room temperature, for a suitable time which depended on the treatment used, in order to determine if any of these treatments affected the attachment of the peptide to the steel. […] This decrease may be partly accounted for by loss of fluorescence over the period of 3 weeks as the steel pieces were repeatedly exposed to light.

[7] = system: bacteria; test: Peptide-coated nitrided steel surfaces in a hospital unit over three months, bacteria counts
Method: A nitrided steel surface was coated with the peptide […] (SEQ ID NO: 5). The surface was dip-coated in a mixture of the peptide (3 µl of 10 mg/ml peptide per cm^2 of metal) and a catalyst (HBTU/DIEA mix) which adhered the peptide to the surface. Coating was carried out at room temperature for 12 hours.
Coated and uncoated steel surfaces were installed in a hospital unit, in the Accident and Emergency room, Operating Theatre, Ward 1 and the associated bathroom. Control surfaces and coated surfaces were situated in identical locations and tested over three months. After use the samples and data collected were sent to the University of Birmingham for analysis.

[8] = system: colony forming unit (CFU) counts; test: CFU count on peptide-coated versus control nitrided α2 steel attached to areas with high predicted CFU counts; conditions: α2 steel coated with unlabelled peptide; swabs on days 1, 2, 7, 8 and 9; all areas tested; FIG. 7
Method: α2 steel was prepared using a standard nitriding process and coated with 1 µg/ml of the unlabelled peptide […] (SEQ ID NO: 5) using the method as described in Example 1. Peptide coated, or control uncoated steel samples were then attached to areas where high colony forming unit (CFU) counts were predicted (e.g. toilet seat, kitchen tap etc.). Cotton wool buds, dipped in saline, were used to swab surfaces on days 1, 2, 7, 8 and 9. Buds were placed in sterelin tubes and used to inoculate blood agar plates, following which plates were incubated for 48 hours at 37° C. before CFU counts were taken.

[9] = Peptide attachment to nitrided / nitrocarburised steel types, fluorescence microscopy pixel count; type: physicochemical; conditions: FIG. 1
Method: Nitrided metal surfaces were incubated overnight at room temperature on a rotamixer in a solution comprising a 9:0.5:0.5 ratio of dimethylformamide (DMF), DIPIA and HBTU, respectively, and 0.5 µg/ml of the peptide […] (SEQ ID NO: 5) tagged with a fluorescent label. Following incubation, surfaces were washed with DMF, which was replenished every 5 minutes for 50 minutes, followed by saline, which was also replenished every 5 minutes for 50 minutes, before being left to air dry.
as §1

[10] = system: S. epidemridis; test: Crystal violet absorbance of bacteria adhering to peptide-coated nitrided steel; type: cell-based; conditions: overnight at 37° C., FIG. 14
Method: Nitrided steel was incubated with a solution of an antimicrobial peptide having the sequence RRIYGRGYIRR (SEQ ID NO: 1) (25 µl, 10 mg/ml/cm^2) at room temperature for 1 hour with a HBTU/DIEA catalyst in DMF to produce a coated surface.
Coated surfaces were inoculated with […] bacterial cells (S. epidemridis) and incubated overnight at 37° C. The surfaces were then washed with PBS and stained using Crystal Violet ([…]) for 15 minutes at room temperature. The surfaces were washed three times to remove any residual stain and the stain lifted in 70% ethanol. The absorbance of crystal violet was read at 560 nm to quantify the level of stain (FIG. 14). The amount of stain is directly related to the number of bacteria.

For “RRRRRRGALAGRRRRRRGALAG (also: fluorescent tag, immobilized on steel or titanium) [antimicrobial peptide immobilized covalently on nitrided steel or titanium; fluorescently tagged in the attachment studies]”, the “inhibition of bacterial growth on treated surfaces” value [1] was “inhibition of bacterial growth was still observed”, the “percentage effectiveness of the coated surfaces compared to control surfaces” value ([2]; city hospital setting, all time points over three months, FIG. 12B) was no less than 99% and the “levels of bacteria on peptide-coated surfaces” value ([2]; door handles, Outpatients area of a city hospital, FIG. 12) was 1 cfu. For the same sequence, the effectiveness ([2]; door handles, Outpatients area, Example 9) was “greater than 99%”, the “peptide fluorescence after treatment” value ([3]; control solution, trypsin or Dettol) was “remained similar” and the “peptide fluorescence after treatment” value ([3]; mechanical agitation using sandpaper) was “retained, albeit at a lower level”. The “change of pixel number” value ([4]; after 2 weeks) was “remained relatively constant”, the “change of pixel number” value ([4]; between 1 and 2 weeks) was “decreased considerably” and the pixels above threshold ([4]; nitrided titanium, after 1, 2, 3 and 4 weeks in PBS solution) was “Pixels were observed above the threshold”. For the same sequence, the “absorbance (bacteria number growing on the surface)” value [5] was “very low absorbance values”, the “difference in pixel counts between treatments” value ([6]; P2 steel group as printed in the beta steel paragraph, FIG. 5, H=13.7, p=0.033) was “significant difference” and the “differences in pixel number between treatments” value ([6]; PlasOx 1 steel, FIG. 6, H=15.4 p=0.017) was “significant”. The “differences in pixel number between treatments” value ([6]; PlasOx 2 steel, FIG. 6, H=12.7 p=0.048) was “significant”, the “pixel number, PlasOx 2 steel versus PlasOx 1 steel” value ([6]; following environmental treatment, in most instances, FIG. 6) was “higher for PlasOx 2 steel than PlasOx 1 steel” and the “peptide coverage of nitrided steel before and after environmental treatments” value ([6]; mild steel nitrided 19 hours at 440° C., room temperature, FIG. 2) was “remains at a similar level”. For the same sequence, the “peptide coverage of nitrided steel following environmental treatment” value ([6]; nitrided mild steel, room temperature, FIG. 3) was “remains constant”, the “difference in pixel counts between treatments” value ([6]; α1 steels, FIG. 4, H=19.4 p=0.004) was “statistically significant difference” and the “difference in pixel counts between treatments” value ([6]; α2 steels, FIG. 4, H=12.4, p=0.053) was “no significant difference”. The “difference in pixel counts between treatments” value ([6]; α3 steels, FIG. 4, H=12.8, p=0.047) was “statistically significant difference”, the “difference in pixel counts between treatments” value ([6]; β1 steels, FIG. 5, H=10.6, p=0.103) was “no significant difference” and the “difference in pixel counts between treatments” value ([6]; β steels (number not given), FIG. 5, H=10.9, p=0.09) was “no significant difference”. For the same sequence, the “percentage effectiveness of the coated surfaces compared to control surfaces” value ([7]; hospital setting, all time points over three months, FIG. 11B) was no less than 99%, the “inhibition of bacterial growth on coated surfaces” value ([7]; hospital unit, three months, FIG. 11) was “complete inhibition of bacterial growth” and the “colony forming units on the one coated plate that showed growth” value ([7]; month 2, believed due to contamination during swabbing or plating) was “one”. The “mean CFU count, peptide coated versus control” value [8] was “consistently higher mean CFU count on control pieces of metal”, the “preferential binding to steel type” value ([9]; comparison of eight steel types) was “highest binding affinity for alpha steel types” and the “mean pixel counts (peptide attachment)” value ([9]; eight steel types (α1-3, β1-3, P1-P2), fluorescently tagged peptide) was “above 0”.

With “RRIYGRGYIRR (RRYIGRGYIRR) [antimicrobial peptide coated on nitrided steel]” the “number of bacteria adhering to the surface (crystal violet absorbance at 560 nm)” value [10] was “significantly reduce the number of bacteria adhering to the surface”.
